The record followed here is patent US9075059B2, “Compositions and methods for detecting plectin-1 as a biomarker for cancer” (University of Virginia Patent Foundation, priority 2009, dated 2015).

Non-standard residues stand in square brackets, D forms with d. No end group written: not given here. *: point of attachment. DOTA = O=C(O)CN1CCN(CC(=O)O)CCN(CC(=O)*)CCN(CC(=O)O)CC1; βAla = NCCC(=O)O

The test system of test [1] is tumors from orthotopically implanted L3.6 cells. In words: SPECT/CT in vivo imaging of orthotopic PDAC. To be noted: labeled peptide.
Procedure: Anesthesia (1%-2% isoflurane in oxygen) was delivered throughout the imaging. CT acquisition used 200 evenly spaced projections spanning 200 degrees over approximately 5 minutes. Mice are repositioned axially for pinhole SPECT scanning 60 evenly spaced projection views were obtained over 180 degrees using two gamma cameras simultaneously. The acquisition time was approximately 30 minutes. The two cameras were fitted with 1 mm diameter tungsten pinholes. […] The reconstructed SPECT voxel size was 0.65×0.65×0.65 mm on a 60×60×60 image matrix. All SPECT images were corrected for radioactivity decay but not for gamma ray attenuation.
The target of test [2] is T1, Plectin-1 (Homo sapiens, UniProt Q15149). In words: Affinity of tetrameric versus monomeric plectin-1 targeted peptide. It is filed as binding. Set-up: L3.6 cells were plated on a 96 well plate and incubated with 111In-tPTP and increasing log concentrations of tPTP or scrambled tetramer; endogenous in cells; host or cells: L3.6 pancreatic cancer cells.
For test [3], the target named is T1, Plectin-1. In words: In vitro competition assay: 111In-tPTP versus unlabeled tPTP or ncPTP on L3.6 cells. It counts as binding. Set-up: L3.6 cells were plated on a 96 well plate and incubated with 111In-tPTP and increasing log concentrations of tPTP or scrambled tetramer; endogenous in cells; host or cells: L3.6 pancreatic cancer cells. To be noted: competition with 111In-labeled tPTP, 1 hr room temperature, read-out: Ki (inhibition dissociation constant).

Test [4] has as its target T1, Plectin-1. In words: competition with 111In-tPTP on L3.6 cells, gamma counting.

T1 sequence (Q15149 whole entry): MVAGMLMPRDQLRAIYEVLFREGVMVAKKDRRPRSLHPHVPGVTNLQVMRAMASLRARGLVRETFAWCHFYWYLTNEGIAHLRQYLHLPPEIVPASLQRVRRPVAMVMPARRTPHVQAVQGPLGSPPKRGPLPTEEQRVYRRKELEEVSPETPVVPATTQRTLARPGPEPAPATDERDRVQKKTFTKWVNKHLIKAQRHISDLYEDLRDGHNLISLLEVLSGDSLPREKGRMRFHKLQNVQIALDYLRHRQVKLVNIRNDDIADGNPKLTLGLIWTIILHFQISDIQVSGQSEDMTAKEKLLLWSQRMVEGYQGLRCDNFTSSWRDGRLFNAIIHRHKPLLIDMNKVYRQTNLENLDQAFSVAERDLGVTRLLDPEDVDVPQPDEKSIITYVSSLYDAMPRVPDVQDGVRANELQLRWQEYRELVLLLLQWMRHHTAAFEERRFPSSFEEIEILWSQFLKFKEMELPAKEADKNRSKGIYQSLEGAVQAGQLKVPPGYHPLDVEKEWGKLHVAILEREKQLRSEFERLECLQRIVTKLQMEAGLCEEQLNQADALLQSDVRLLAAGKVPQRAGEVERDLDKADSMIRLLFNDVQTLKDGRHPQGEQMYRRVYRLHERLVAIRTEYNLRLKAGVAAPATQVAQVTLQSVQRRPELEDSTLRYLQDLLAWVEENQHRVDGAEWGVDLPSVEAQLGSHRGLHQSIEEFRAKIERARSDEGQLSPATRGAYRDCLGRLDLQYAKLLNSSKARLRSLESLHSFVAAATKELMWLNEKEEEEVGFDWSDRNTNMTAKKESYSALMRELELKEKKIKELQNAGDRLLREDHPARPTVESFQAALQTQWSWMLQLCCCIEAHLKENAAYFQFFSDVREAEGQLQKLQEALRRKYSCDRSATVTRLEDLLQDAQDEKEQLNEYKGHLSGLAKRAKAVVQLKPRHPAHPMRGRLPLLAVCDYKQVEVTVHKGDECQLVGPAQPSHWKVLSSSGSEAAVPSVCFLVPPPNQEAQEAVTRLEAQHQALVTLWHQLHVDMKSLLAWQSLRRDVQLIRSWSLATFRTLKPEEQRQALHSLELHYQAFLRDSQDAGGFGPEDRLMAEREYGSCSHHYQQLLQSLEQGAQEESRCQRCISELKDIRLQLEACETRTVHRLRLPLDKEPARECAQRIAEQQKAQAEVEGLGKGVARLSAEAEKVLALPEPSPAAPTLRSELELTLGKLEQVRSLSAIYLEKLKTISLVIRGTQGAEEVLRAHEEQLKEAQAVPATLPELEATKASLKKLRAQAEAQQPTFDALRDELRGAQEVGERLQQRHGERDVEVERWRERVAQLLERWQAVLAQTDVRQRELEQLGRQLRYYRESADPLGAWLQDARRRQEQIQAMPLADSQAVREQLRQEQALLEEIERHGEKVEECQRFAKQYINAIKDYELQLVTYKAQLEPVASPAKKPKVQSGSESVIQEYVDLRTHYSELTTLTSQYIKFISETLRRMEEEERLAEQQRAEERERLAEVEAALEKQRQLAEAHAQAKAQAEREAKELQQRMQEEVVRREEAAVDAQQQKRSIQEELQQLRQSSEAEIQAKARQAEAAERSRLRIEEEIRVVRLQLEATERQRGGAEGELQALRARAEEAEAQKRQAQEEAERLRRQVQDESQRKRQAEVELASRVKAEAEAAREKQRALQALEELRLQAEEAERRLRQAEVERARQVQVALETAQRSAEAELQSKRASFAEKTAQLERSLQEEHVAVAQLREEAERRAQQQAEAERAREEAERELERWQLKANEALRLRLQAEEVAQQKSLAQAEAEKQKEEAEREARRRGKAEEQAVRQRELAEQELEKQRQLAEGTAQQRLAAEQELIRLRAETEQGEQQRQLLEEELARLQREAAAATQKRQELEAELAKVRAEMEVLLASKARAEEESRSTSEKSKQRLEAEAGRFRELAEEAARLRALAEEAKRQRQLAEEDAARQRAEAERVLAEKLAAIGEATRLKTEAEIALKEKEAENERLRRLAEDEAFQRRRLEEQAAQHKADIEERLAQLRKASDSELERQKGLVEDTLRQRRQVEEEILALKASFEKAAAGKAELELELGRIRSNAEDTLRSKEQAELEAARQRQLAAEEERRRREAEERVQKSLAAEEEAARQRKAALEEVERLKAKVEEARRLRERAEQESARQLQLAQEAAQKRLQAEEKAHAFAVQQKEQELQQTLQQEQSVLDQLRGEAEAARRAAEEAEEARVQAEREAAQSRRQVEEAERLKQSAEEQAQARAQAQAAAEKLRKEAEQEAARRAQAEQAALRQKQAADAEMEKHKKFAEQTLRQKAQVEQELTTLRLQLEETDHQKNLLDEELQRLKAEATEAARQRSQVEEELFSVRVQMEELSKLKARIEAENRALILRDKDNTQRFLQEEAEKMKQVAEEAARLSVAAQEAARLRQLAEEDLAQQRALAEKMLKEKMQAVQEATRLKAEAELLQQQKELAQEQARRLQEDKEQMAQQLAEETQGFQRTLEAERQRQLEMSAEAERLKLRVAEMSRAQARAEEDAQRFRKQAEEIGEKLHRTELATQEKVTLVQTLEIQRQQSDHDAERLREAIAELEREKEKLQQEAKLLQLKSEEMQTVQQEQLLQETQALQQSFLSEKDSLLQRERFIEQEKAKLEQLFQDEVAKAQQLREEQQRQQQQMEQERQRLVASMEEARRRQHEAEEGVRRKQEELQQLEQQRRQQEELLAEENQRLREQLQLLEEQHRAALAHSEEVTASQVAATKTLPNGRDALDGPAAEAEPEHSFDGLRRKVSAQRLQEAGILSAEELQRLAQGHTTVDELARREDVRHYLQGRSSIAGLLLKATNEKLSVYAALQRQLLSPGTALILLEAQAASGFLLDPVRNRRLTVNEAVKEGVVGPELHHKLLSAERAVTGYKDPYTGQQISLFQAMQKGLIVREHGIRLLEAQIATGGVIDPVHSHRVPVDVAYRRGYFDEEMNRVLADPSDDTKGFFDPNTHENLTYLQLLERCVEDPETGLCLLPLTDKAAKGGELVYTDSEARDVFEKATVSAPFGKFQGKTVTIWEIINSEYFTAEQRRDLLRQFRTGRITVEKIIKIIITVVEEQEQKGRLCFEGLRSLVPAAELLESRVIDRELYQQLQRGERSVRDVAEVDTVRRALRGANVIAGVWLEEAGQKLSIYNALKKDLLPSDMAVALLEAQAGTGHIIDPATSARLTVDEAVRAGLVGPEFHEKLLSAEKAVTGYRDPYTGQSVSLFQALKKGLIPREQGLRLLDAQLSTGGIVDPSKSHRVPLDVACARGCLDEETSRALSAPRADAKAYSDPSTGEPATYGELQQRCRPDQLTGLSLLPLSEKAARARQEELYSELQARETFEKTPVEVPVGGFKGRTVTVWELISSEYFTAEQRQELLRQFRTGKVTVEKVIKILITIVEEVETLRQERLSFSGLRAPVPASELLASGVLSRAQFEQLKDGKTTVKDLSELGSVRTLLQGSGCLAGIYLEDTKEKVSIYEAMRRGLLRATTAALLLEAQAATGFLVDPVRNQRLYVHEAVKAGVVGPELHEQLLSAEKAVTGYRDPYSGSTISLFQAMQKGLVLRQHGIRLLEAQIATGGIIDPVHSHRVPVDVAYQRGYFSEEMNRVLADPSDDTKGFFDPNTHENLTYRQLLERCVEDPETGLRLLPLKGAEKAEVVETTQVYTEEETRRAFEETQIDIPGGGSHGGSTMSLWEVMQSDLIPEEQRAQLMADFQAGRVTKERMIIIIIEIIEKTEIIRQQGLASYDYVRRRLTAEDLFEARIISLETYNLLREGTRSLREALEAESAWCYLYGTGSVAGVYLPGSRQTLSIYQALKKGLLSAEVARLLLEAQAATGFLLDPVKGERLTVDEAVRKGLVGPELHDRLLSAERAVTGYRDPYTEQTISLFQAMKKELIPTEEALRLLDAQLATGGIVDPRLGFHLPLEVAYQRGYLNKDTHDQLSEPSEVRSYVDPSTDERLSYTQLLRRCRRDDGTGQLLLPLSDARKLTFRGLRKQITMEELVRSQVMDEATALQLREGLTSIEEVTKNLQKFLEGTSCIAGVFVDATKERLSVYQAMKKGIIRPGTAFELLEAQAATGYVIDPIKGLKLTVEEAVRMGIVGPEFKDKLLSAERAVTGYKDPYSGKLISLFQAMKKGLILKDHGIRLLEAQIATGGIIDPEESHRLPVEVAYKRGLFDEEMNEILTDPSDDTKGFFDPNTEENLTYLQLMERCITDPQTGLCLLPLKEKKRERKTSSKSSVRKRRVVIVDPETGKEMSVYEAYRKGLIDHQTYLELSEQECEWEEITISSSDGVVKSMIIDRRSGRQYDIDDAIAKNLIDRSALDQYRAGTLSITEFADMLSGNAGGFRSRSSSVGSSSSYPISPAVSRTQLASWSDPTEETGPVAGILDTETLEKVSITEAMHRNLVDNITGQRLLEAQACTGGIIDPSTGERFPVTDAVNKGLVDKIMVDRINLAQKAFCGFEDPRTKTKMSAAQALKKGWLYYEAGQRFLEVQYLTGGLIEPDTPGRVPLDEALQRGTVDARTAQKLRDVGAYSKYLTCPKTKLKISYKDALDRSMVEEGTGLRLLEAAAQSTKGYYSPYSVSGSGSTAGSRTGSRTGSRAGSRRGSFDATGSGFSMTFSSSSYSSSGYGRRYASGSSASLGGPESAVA

Consider KTLLPTP [monomeric peptide], for which the time before visualization in test [1] was found to be 48 h. Further, in the test with Plectin-1 [2], the affinity turned out to be 160 nmol. The Ki is a measure of affinity in units of concentration, obtained from inhibition or displacement. For “ncPTP-4(βAKHVMSKQGGS (PEG5000))KKKDOTAβA-NH2 (peptide [βAla]KHVMSKQGGS; chain Lys-Lys-Lys(DOTA)-{βAla-NH2}; not fully specified (some residues, C-terminus); also: tetramer: four chain-1 arms on lysine core, each arm's Ser joined via PEG5000 to the lysine core)”, the Ki in the test with Plectin-1 [3] is 2860 nM.

B1: ncPTP-4(β… (PEG5000))KKKDOTAβA-NH2 (peptide)
peptide: [βAla]KHVMSKQGGS-PEG5000
chain: Lys-Lys-Lys
modifications: not fully specified (some residues, C-terminus); also: tetramer: four arms joined via PEG5000 to lysine core, attachment lysines not given here
For B1, in the test with Plectin-1 [4], the Ki worked out at 2860 nM.

B2: tetrameric plectin-1 targeted peptide (tPTP) complex, (β…(PEG5000))4 KKKKDOTAβA-NH2 (peptide)
peptide: [βAla]KTLLPTPGGS-PEG5000
chain: KKKK(DOTA)-{βAla-NH2}
modifications: not fully specified (some residues); also: branched core [(arm)2-Lys]2-Lys-Lys(DOTA): four arms, C-terminal Ser of each joined through PEG5000 to an amino group of the core
As for B2, in the test with Plectin-1 [4], the Ki is 830 nM.
